Results from paper PMC8200828, “Phylogenetic and Structural Analysis of NIN-Like Proteins With a Type I/II PB1 Domain That Regulates Oligomerization for Nitrate Response” (Frontiers in Plant Science, 2021).

What was measured:
[1] = biological target: the molecule itself; assay: dynamic light scattering; protein at 2 mg/mL, after SEC, 25 °C; self-association
[2] = biological target: the molecule itself; assay: SEC; Superdex S-75 in buffer C (20 mM Tris pH 8.8, 0.5 M NaCl, 10% glycerol, 5 mM GSH, 1 mM TCEP), calibrated with gel filtration standard markers; self-association

B1: Arabidopsis thaliana NLP7 (AtNLP7) PB1 domain, wild type (domain or fragment, UniProt Q84TH9 863-945, looked up)
chain: TVTIKASYKDDIIRFRISSGSGIMELKDEVAKRLKVDAGTFDIKYLDDDNEWVLIACDADLQECLEIPRSSRTKIVRLLVHDV
notes: NIN-like protein 7 (AtNLP7), Arabidopsis thaliana, PB1 domain at the C-terminus of AtNLP7; PCR-amplified from plasmid pDL2Nx-NLP7 PB1 with the printed primers PB1-EcoRI and PB1-HindIII, subcloned into pET28a; A thrombin cleavage site follows the N-terminal His6 tag; no cleavage step is described and the purified protein is called 6xHis-NLP7 PB1 (15.6 kDa); also called NLP7 PB1wt; 6xHis-NLP7 PB1 …
With B1 the “stoichiometry N” value [1] was 4 and the “stoichiometry N” value [2] was 2.
